Assay results published in patent EP1593386A1 (Charité - Universitätsmedizin Berlin, dated 2005).

Target: T1, CD7 on human peripheral blood T lymphocytes (human, UniProt P09564 26-240)
T1 construct: whole, on cells
T1 sequence (looked up): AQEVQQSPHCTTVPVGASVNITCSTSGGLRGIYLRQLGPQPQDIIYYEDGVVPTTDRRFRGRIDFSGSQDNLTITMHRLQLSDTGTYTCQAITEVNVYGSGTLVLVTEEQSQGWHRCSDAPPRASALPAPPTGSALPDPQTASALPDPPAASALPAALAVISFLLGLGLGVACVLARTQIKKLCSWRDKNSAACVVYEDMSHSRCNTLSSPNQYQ
Assay: pull-down with galectin-2 coated tosyl-activated magnetic beads on PBT, immunoblot for CD7

binding result: no binding
B1: galectin-2 (ligand, UniProt P05162 1-132, looked up)
chain: MTGELEVKNMDMKPGSTLKITGSIADGTDGFVINLGQGTDKLNLHFNPRFSESTIVCNSLDGSNWGQEQREDHLCFSPGSEVKFTVTFESDKFKVKLPDGHELTFPNRLGHSHLSYLSVRGGFNMSSFKLKE
modifications: biotin-labelled (sites not given) in the flow cytometry assays; coupled to tosyl-activated magnetic beads in the co-immunoprecipitation
notes: also called Gal-2; biotin-labelled galectin-2
